Results reported in patent US20040072319A1, “Molecules that modulate ubiquintin-dependent proteolysis and methods for identifying same” (priority 2003, published 2004).
Substitutions are numbered along the chain they refer to. Square brackets hold non-standard residues; d marks the D form. Ends that are not written are not given here. Peptide text beside a SMILES is read from it. pY = N[C@@H](Cc1ccc(OP(=O)(O)O)cc1)C(=O)O; pT = C[C@@H](OP(=O)(O)O)[C@H](N)C(=O)O; pS = N[C@@H](COP(=O)(O)O)C(=O)O

Legend:
[1] = biological target: Cdc4 (Saccharomyces cerevisiae, UniProt P07834); experiment: Fluorescence polarization equilibrium binding of peptides to Cdc4; parameters: made in house; host or cells: Cdc4: baculovirus-infected insect (Sf9) cells; Gst-Skp1: E. coli BL21 codon plus; species or system yeast
Description: Equilibrium binding constant determination was carried out using fluorescence polarization on a Beacon 2000 Fluorescence Polarization System (Pan Vera, Wis.) equipped with a 100 μL sample chamber. Fluorescein-labeled probes were prepared through the reaction of carboxyterminal-peptides with 5-(and-6)-carboxyfluorescein succinimidyl ester (Molecular Probes), purified by reverse-phase HPLC, and confirmed by mass spectrometry. Binding studies were conducted with 5 nM fluorescein-labeled probe dissolved in PBS containing 100 μg/ml BSA and 1 mM dithiothreitol. Reaction mixtures were allowed to equilibrate for 10 minutes at room temperature prior to each measurement. All fluorescence polarization measurements were conducted at 22° C.

[2] = biological target: T1, Cdc4 (Saccharomyces cerevisiae, UniProt P07834); experiment: Capture of Cdc4 from baculovirus-infected insect cell lysates by biotinylated peptide; assay type: binding, yeast; settings: insect cells infected with Cdc4 baculovirus
T1 construct: made in house; host or cells: Sf9 insect cells infected with recombinant baculovirus (crude lysate)
T1 sequence (P07834 whole entry, looked up): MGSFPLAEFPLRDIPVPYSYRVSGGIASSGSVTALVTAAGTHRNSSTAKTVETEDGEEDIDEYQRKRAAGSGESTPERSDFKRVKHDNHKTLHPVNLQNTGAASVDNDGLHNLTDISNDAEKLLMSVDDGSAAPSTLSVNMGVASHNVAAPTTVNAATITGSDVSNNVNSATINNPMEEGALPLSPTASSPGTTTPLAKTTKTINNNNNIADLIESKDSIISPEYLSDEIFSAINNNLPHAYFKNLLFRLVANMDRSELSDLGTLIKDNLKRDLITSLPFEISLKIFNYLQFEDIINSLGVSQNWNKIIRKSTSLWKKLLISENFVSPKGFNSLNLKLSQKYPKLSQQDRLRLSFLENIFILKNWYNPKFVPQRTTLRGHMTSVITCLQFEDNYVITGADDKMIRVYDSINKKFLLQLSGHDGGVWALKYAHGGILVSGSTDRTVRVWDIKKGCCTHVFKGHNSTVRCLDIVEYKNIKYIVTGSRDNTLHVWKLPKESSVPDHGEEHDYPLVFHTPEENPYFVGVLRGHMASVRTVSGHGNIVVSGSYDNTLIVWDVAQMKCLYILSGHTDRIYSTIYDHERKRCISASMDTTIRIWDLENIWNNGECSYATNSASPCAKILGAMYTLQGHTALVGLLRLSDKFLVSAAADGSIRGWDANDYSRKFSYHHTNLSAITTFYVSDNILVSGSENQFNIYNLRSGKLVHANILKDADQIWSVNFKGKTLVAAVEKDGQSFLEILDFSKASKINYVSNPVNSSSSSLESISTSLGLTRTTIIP
From the text: SCF complexes were purified from SF9 cells infected with recombinant baculoviruses and used in binding assays and ubiquitination reactions essentially as described (7). Gst-Skp1 expressed in BL21 codon plus cells (Stratagene) then purified on glutathione resin was used to capture full Cdc4 from insect cell lysates. Truncated forms of Cdc4 were enriched prior to Gst-Skp1 capture by affinity purification of hexahistidine fusion proteins on a metal chelate column. The Skp1-Cdc4 complexes were released from the Gst moiety by cleavage with TEV protease and further purified by size exclusion chromatography on a Superdex S75 or S200 column. Biotin labeled […]p[…] (SEQ ID NO. 1), […] (SEQ ID NO. 12), and APPLSQEpTFSDLWK (SEQ ID NO. 13) were synthesized by addition of d-biotin (Sigma) with an Fmoc-e-aminocaproic acid (Bachem) spacer to carboxy-terminal peptides. […] Streptavidin-agarose beads (Sigma) were incubated in the presence of biotinylated peptide for 90 min. at 4° C. Beads were washed 3 times and then incubated with lysates from Cdc4 expressing baculovirus infected Sf9 cells. Beads were washed 4 times, after which SDS-PAGE gel loading buffer was added and the beads were boiled for 5 min. Proteins were separated by SDS-PAGE and visualized by silver stain. […]

[3] = biological target: T2, Skp1-Cdc4 complex (yeast, UniProt P07834 1-779; P52286 1-194, limits assumed); experiment: fluorescence polarization, 5 nM fluorescein-labeled peptide, Cdc4/Skp1 titrated
T2 construct: Purified complex (Gst removed by TEV, size exclusion) for fluorescence polarization and SPOTS arrays; also called Cdc4/Skp1; cdc4/skp1 complex
T2 sequence (P52286 whole entry, chain 2 of 2, one chain of several): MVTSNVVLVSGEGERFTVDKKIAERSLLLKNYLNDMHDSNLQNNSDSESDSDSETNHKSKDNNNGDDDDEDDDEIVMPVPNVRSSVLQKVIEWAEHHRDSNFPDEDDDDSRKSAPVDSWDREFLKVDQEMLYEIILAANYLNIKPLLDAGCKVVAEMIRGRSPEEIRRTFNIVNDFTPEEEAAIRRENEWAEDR

[4] = biological target: T3, Cdc4-Skp1 complexes (Saccharomyces cerevisiae, UniProt P07834); experiment: Peptide out-competition of phosphorylated substrates binding to Cdc4-Skp1; parameters: species or system yeast; settings: peptide 3, 17, 68 μM in FIG. 6f
T3 construct: made in house; host or cells: insect cells (baculovirus)
T3 sequence (P52286 whole entry partner, one chain of several): as the sequence (P52286 whole entry, chain 2 of 2, one chain of several) above
From the text: SCF complexes were purified from SF9 cells infected with recombinant baculoviruses and used in binding assays and ubiquitination reactions essentially as described (7). Gst-Skp1 expressed in BL21 codon plus cells (Stratagene) then purified on glutathione resin was used to capture full Cdc4 from insect cell lysates. Truncated forms of Cdc4 were enriched prior to Gst-Skp1 capture by affinity purification of hexahistidine fusion proteins on a metal chelate column. The Skp1-Cdc4 complexes were released from the Gst moiety by cleavage with TEV protease and further purified by size exclusion chromatography on a Superdex S75 or S200 column. Biotin labeled […]p[…] (SEQ ID NO. 1), […] (SEQ ID NO. 12), and APPLSQEpTFSDLWK (SEQ ID NO. 13) were synthesized by addition of d-biotin (Sigma) with an Fmoc-e-aminocaproic acid (Bachem) spacer to carboxy-terminal peptides. […] Streptavidin-agarose beads (Sigma) were incubated in the presence of biotinylated peptide for 90 min. at 4° C. Beads were washed 3 times and then incubated with lysates from Cdc4 expressing baculovirus infected Sf9 cells. Beads were washed 4 times, after which SDS-PAGE gel loading buffer was added and the beads were boiled for 5 min. Proteins were separated by SDS-PAGE and visualized by silver stain. Peptide out-competition of phosphorylated substrates was carried out with immunopurified Skp1^FLAG-Cdc4 from insect cells, which were incubated with phosphopeptides prior to addition of phospho-Sic1 or phospho-Cyclin E-Cdk2. For kinase inhibition assays, purified recombinant Clb5-Cdc28 complex (30 ng) was incubated with mutant forms of Sic1 (40 ng) and histone H1 (HH1, 2 μg) for 1 h on ice prior to addition of [^32P]-γ-ATP and incubation at 25° C. for 30 min. Samples were separated by SDS-PAGE and visualized by autoradiography.

[5] = biological target: T2, Skp1-Cdc4 complex; experiment: fluorescence polarization
[6] = biological target: T4, Cdc4 (yeast F-box protein, recombinant, expressed in baculovirus-infected insect cells) (yeast, UniProt P07834 1-779); experiment: capture of Gst-Sic1 on Cdc4^FLAG resin, anti-Sic1 blot
T4 construct: also called Cdc4^FLAG
T4 sequence (looked up): T1 sequence (P07834 whole entry, looked up)

CC[C@H](C)[C@H](NC(=O)[C@@H]1CCCN1C(=O)[C@@H](NC(=O)[C@H](CC(C)C)NC(=O)[C@H](CC(C)C)NC(=O)[C@H](CCC(=O)O)NC(=O)c1ccc2c(c1)C(=O)OC21c2ccc(O)cc2Oc2cc(O)ccc21)[C@@H](C)OP(=O)(O)O)C(=O)N[C@@H](CC(C)C)C(=O)N[C@@H](C)C(=O)N[C@@H](Cc1ccccc1)C(=O)O [Pc17, ELLpTPILAF] (HELM PEPTIDE1{[O=C1OC2(c3ccc(O)cc3Oc3cc(O)ccc32)c2ccc(C(=O)[*:2])cc21].E.L.L.[C[C@@H](OP(=O)(O)O)[C@H](N[*:1])C(=O)[*:2]].P.I.L.A.F}$$$$V2.0) gave a Kd ([1]; K, (μM), Table 1, average of at least 3 sets of readings, ± SEM, ND = no binding detected up to [Cdc4/Skp1] of 10 μM, ˜ = saturation binding not achieved) of roughly 40 µM.

For “ASPLPSGLLTPPQSGKKQS [unphosphorylated peptide, biotin labeled unphosphorylated cyclin E1 19 residue control peptide, reference compound]”, the “capture of Cdc4 from lysates by biotinylated peptide” value ([2]; listed as non-phosphorylated CycE^19-pT380 peptide) was “does not” and the “capture of Cdc4 from lysates by biotinylated peptide” value ([2]; listed as unphosphorylated version of the peptide) was “failed to interact with cdc4”.

For CycE-5mer LLpTPP (peptide), the Kd [3] was 0.85 µM.

In the case of CycEK2-9mer GLLpTPKQSG (peptide), the Kd [3] is reported as 6.3 µM.

Work on CycEK3-9mer GLLpTPPKSG (peptide) yielded a Kd [3] of 5.1 µM.

CycEK4-9mer GLLpTPPQKG (peptide) was tested, and the Kd [3] was 4.3 µM.

CycEK5-9mer GLLpTPPQSK (peptide) was tested, and the Kd [3] was 2.4 µM.

For CycEK-1-9mer GLKpTPPQSG (peptide), the Kd [3] was 6 µM.

With CycEK-2-9mer GKLpTPPQSG (peptide) the Kd [3] was 12 µM.

For GLLpYPPQSG (GLL[pY]PPQSG) [CycEpY-9mer], the “binding to Cdc4 (in words)” value [1] was “failed to bind”.

In the case of “PKPLNLSKPIpSPPPSLKKTA (PKPLNLSKPI[pS]PPPSLKKTA) [Far 1 pS87]”, the “binding to Cdc4 (in words)” value [1] is reported as “could neither bind stably to Cdc4” and the “competition with substrates (Sic1, cyclin E1, Far1) for binding to Cdc4” value (“competition with substrates” below) [4] is reported as “nor block the interaction”.

With “Sic1 15-pT45: Sic1 phosphopeptide centered on pT45; possibly the SicpT45 peptide of Table 1” the “binding to Cdc4 (in words)” value [1] was “does not measurably bind Cdc4” and the “competition with substrates” value [4] was “does not measurably bind Cdc4 or compete with substrates”.

With VPVpTPSTTK (VPV[pT]PSTTK) [SicpT45] the “binding to Cdc4 (in words)” value [1] was “could neither bind stably to Cdc4” and the “competition with substrates” value [4] was “nor block the interaction”.

NVQ[pT]PTLMA (also called Pcl2) [Pc12 peptide NVQpTPTLMA]: no binding (tested: up to [Cdc4/Skp1] of 10 µM) [5].

GLL[pT]APQSG [CycEA1-9mer GLLpTAPQSG]: no binding (tested: up to [Cdc4/Skp1] of 10 µM) [5].

GLL[pY]PPQSG (also called CycE19-pY380) [CycEpY-9mer GLLpYPPQSG]: no binding (tested: up to [Cdc4/Skp1] of 10 µM) [5].

VEQ[pT]PKKPG [p27pT187 peptide VEQpTPKKPG]: no binding (tested: up to [Cdc4/Skp1] of 10 µM) [5].

PKPLNLSKPI[pS]PPPSLKKTA [Far 1 pS87 peptide PKPLNLSKPIpSPPPSLKKTA]: no binding (tested: up to [Cdc4/Skp1] of 10 µM) [5].

B1: SicpT45 peptide VPVpTPSTTK (peptide)
peptide: VPV[pT]PSTTK
notes: also called Sic1 pT45 phosphopeptide; Sic1 15-pT45 peptide
B1: no binding (tested: up to [Cdc4/Skp1] of 10 µM) [5].

B2: Sic1 6m (Sic1^9m with T33, T45 and S76 restored), Gst fusion (other, yeast, UniProt P38634 1-284, looked up)
chain: MAPSAPPRSRGTRYLAQPSGNTSSSALMQGQKTPQKPSQNLVPVTPSTTKSFKNAPLLAPPNSNMGMTAPFNGLTSPQRAPFPKSSVKRTLFQFESHDNGTVREEQEPLGRVNRILFPTQQNVDIDAAEEEEEGEVLLPPSRPTSARQLHLSLERDEFDQTHRKKIIKDVPGAPSDKVITFELAKNWNNNVPKNDARSQESEDEEDIIINPVRVGKNPFASDELVTQEIRNERKRAMLRENPDIEDVITYVNKKGEVVEKRRLTDEEKRRFKPKALFQSRDQEH
modifications: treated with Cln2-Cdc28 kinase
notes: not shown: glutathione S-transferase (Gst) fusion moiety of pGEX-3x
B2: no binding [6].

B3: Sic1 7m (Sic1^9m with T45 and S76 restored), Gst fusion (other, yeast, UniProt P38634 1-284, looked up)
chain: B2 chain with T33A
modifications: treated with Cln2-Cdc28 kinase
notes: as for B2
B3: no binding [6].
